Laboratory results: paper PMC4072508, “Genome-Wide Prediction and Validation of Peptides That Bind Human Prosurvival Bcl-2 Proteins” (PLoS Computational Biology, 2014)

T1: Mcl-1, Q07820
T1 chain: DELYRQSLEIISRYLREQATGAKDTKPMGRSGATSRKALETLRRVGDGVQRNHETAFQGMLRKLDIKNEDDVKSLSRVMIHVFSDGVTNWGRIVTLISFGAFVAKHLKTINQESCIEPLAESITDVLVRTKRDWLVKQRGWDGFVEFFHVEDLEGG

T2: Bcl-w, Q92843
T2 chain: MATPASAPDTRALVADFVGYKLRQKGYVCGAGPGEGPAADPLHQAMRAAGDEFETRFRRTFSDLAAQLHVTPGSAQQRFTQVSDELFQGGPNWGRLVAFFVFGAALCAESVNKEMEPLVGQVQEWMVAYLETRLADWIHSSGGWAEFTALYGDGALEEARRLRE

T3: Bfl-1, Q16548
T3 chain: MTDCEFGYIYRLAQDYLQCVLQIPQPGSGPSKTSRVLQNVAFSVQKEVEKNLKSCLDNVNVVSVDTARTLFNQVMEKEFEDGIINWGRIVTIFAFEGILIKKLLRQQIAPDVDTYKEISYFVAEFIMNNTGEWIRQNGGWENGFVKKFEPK


Target: T1, Mcl-1, Q07820
Experiment: peptide SPOT array, c-Myc-tagged receptor at 1 uM or 100 nM, anti-c-Myc-Cy3

Row | SPOT signal as a fraction of Bim BH3's signal on the same receptor and array | Binder
1 | 0.04 | LGDGPKLVRELFRVAEEHAPSIVFID [PSMC1]
2 | 0.06 | CLKRCRSAQVLHLYGATYSADGEDRA [NLRP12]
3 | 0.03 | RIEERKAIIGLYNYAHEMTHGASDRE [NCKAP1]
4 | 0.02 | AAVGNHVAKLLQSIGQAPESISEKEL [NAE1]
5 | 0.02 | EVKQSMSSQSLDKAAEDMPEAEQDLE [APBA1]
6 | 0.02 | EERAQNVTRLLRKQAEEVNTEWEKLN
7 | 0.02 | AEHEDDLPENLSEIADLWNSPTRTHG [CDH23]
8 | 0.14 | DISLSNSGFKLVNFGCDYHQYRDKFS [PION]
9 | 0.03 | EEIIHKLAMQDRHIGDNIDHRMVRED [PXT1]

Further lines, the binder ahead of its results:

Row | Binder | SPOT signal as a fraction of Bim BH3's signal on the same receptor and array
10 | GFANHDVVEVLRNAGQVVHLTLVRRK [INADL] | 0.34
11 | FYRRRDISNTLIMLADKHAKEIEEES [MTA3] | 0.07
12 | AIKPVSFIRDLKKIARHFRFGNQEDA [USP36] | 0.39
13 | TIHFNQRGTRLASSGDDLRVIVWDWV [DCAF8L1] | 0.04
14 | FSSDAVTSRVLLNVGQEVIAVVEENK [MOV10L1] | 0.02
15 | IGQRQTVVRTLNATGEEIIQQSSKTD | 0.02
16 | CSTNNPSQAKLRRELDESLQVAERLT [CLU] | 0.02
17 | TIRNGHDSELLRSLAEELPLEQGFTI [PLCD4] | 0.02
18 | RDASKILVDALQKFADDMYSLYGGNA [ATP6AP2] | 0.02
19 | TNISWRACDHLRCIACDFLVVSYDDY [C8orf37] | 0.08
20 | DTIYQGFAECLIRLGDSMGRGGELET [NRN1L] | 0.17
21 | FEKLRMIAKEIRHVGRMASVNMDPAL [RAPGEF2] | 0.13
22 | MVLDPSLAEHLSHFGIDMLKMQKTDK [USP5] | 0.04

Target: T2, Bcl-w, Q92843
Experiment: as above

Row | SPOT signal as a fraction of Bim BH3's signal on the same receptor and array | Binder
23 | 0.02 | LGDGPKLVRELFRVAEEHAPSIVFID [PSMC1]
24 | 0.07 | CLKRCRSAQVLHLYGATYSADGEDRA [NLRP12]
25 | 0.03 | RIEERKAIIGLYNYAHEMTHGASDRE [NCKAP1]
26 | 0.02 | AAVGNHVAKLLQSIGQAPESISEKEL [NAE1]
27 | 0.02 | EVKQSMSSQSLDKAAEDMPEAEQDLE [APBA1]
28 | 0.04 | EERAQNVTRLLRKQAEEVNTEWEKLN
29 | 0.02 | AEHEDDLPENLSEIADLWNSPTRTHG [CDH23]
30 | 0.2 | DISLSNSGFKLVNFGCDYHQYRDKFS [PION]
31 | 0.02 | EEIIHKLAMQDRHIGDNIDHRMVRED [PXT1]

More lines, now with the values behind:

Row | Binder | SPOT signal as a fraction of Bim BH3's signal on the same receptor and array
32 | GFANHDVVEVLRNAGQVVHLTLVRRK [INADL] | 0.31
33 | FYRRRDISNTLIMLADKHAKEIEEES [MTA3] | 0.09
34 | AIKPVSFIRDLKKIARHFRFGNQEDA [USP36] | 0.75
35 | TIHFNQRGTRLASSGDDLRVIVWDWV [DCAF8L1] | 0.03
36 | FSSDAVTSRVLLNVGQEVIAVVEENK [MOV10L1] | 0.02
37 | IGQRQTVVRTLNATGEEIIQQSSKTD | 0.02
38 | CSTNNPSQAKLRRELDESLQVAERLT [CLU] | 0.02
39 | TIRNGHDSELLRSLAEELPLEQGFTI [PLCD4] | 0.01
40 | RDASKILVDALQKFADDMYSLYGGNA [ATP6AP2] | 0.05
41 | TNISWRACDHLRCIACDFLVVSYDDY [C8orf37] | 0.15
42 | DTIYQGFAECLIRLGDSMGRGGELET [NRN1L] | 0.03
43 | FEKLRMIAKEIRHVGRMASVNMDPAL [RAPGEF2] | 0.18
44 | MVLDPSLAEHLSHFGIDMLKMQKTDK [USP5] | 0.03

Target: Bcl-2, P10415
Sequence (P10415 1-217): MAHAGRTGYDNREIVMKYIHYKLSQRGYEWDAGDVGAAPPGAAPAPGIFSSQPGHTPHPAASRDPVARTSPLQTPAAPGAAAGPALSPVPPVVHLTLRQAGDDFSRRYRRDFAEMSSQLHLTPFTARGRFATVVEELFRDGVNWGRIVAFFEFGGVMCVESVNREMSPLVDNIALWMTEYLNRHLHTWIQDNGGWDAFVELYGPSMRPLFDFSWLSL
Experiment: as above

Row | SPOT signal as a fraction of Bim BH3's signal on the same receptor and array | Binder
45 | 0.01 | LGDGPKLVRELFRVAEEHAPSIVFID [PSMC1]
46 | 0.05 | CLKRCRSAQVLHLYGATYSADGEDRA [NLRP12]
47 | 0.02 | RIEERKAIIGLYNYAHEMTHGASDRE [NCKAP1]
48 | 0.01 | AAVGNHVAKLLQSIGQAPESISEKEL [NAE1]
49 | 0.01 | EVKQSMSSQSLDKAAEDMPEAEQDLE [APBA1]
50 | 0.01 | EERAQNVTRLLRKQAEEVNTEWEKLN
51 | 0.01 | AEHEDDLPENLSEIADLWNSPTRTHG [CDH23]
52 | 0.09 | DISLSNSGFKLVNFGCDYHQYRDKFS [PION]
53 | 0.01 | EEIIHKLAMQDRHIGDNIDHRMVRED [PXT1]

The next lines start with the binder.

Row | Binder | SPOT signal as a fraction of Bim BH3's signal on the same receptor and array
54 | GFANHDVVEVLRNAGQVVHLTLVRRK [INADL] | 0.12
55 | FYRRRDISNTLIMLADKHAKEIEEES [MTA3] | 0.03
56 | AIKPVSFIRDLKKIARHFRFGNQEDA [USP36] | 0.19
57 | TIHFNQRGTRLASSGDDLRVIVWDWV [DCAF8L1] | 0.02
58 | FSSDAVTSRVLLNVGQEVIAVVEENK [MOV10L1] | 0.01
59 | IGQRQTVVRTLNATGEEIIQQSSKTD | 0.01
60 | CSTNNPSQAKLRRELDESLQVAERLT [CLU] | 0.01
61 | TIRNGHDSELLRSLAEELPLEQGFTI [PLCD4] | 0.01
62 | RDASKILVDALQKFADDMYSLYGGNA [ATP6AP2] | 0.01
63 | TNISWRACDHLRCIACDFLVVSYDDY [C8orf37] | 0.01
64 | DTIYQGFAECLIRLGDSMGRGGELET [NRN1L] | 0.01
65 | FEKLRMIAKEIRHVGRMASVNMDPAL [RAPGEF2] | 0.1
66 | MVLDPSLAEHLSHFGIDMLKMQKTDK [USP5] | 0.02

Target: T3, Bfl-1, Q16548
Experiment: as above

Row | SPOT signal as a fraction of Bim BH3's signal on the same receptor and array | Binder
67 | 0.03 | LGDGPKLVRELFRVAEEHAPSIVFID [PSMC1]
68 | 0.11 | CLKRCRSAQVLHLYGATYSADGEDRA [NLRP12]
69 | 0.03 | RIEERKAIIGLYNYAHEMTHGASDRE [NCKAP1]
70 | 0.02 | AAVGNHVAKLLQSIGQAPESISEKEL [NAE1]
71 | 0.02 | EVKQSMSSQSLDKAAEDMPEAEQDLE [APBA1]
72 | 0.04 | EERAQNVTRLLRKQAEEVNTEWEKLN
73 | 0.01 | AEHEDDLPENLSEIADLWNSPTRTHG [CDH23]
74 | 0.38 | DISLSNSGFKLVNFGCDYHQYRDKFS [PION]
75 | 0.02 | EEIIHKLAMQDRHIGDNIDHRMVRED [PXT1]

The next lines start with the binder.

Row | Binder | SPOT signal as a fraction of Bim BH3's signal on the same receptor and array
76 | GFANHDVVEVLRNAGQVVHLTLVRRK [INADL] | 0.38
77 | FYRRRDISNTLIMLADKHAKEIEEES [MTA3] | 0.08
78 | AIKPVSFIRDLKKIARHFRFGNQEDA [USP36] | 0.65
79 | TIHFNQRGTRLASSGDDLRVIVWDWV [DCAF8L1] | 0.04
80 | FSSDAVTSRVLLNVGQEVIAVVEENK [MOV10L1] | 0.02
81 | IGQRQTVVRTLNATGEEIIQQSSKTD | 0.03
82 | CSTNNPSQAKLRRELDESLQVAERLT [CLU] | 0.02
83 | TIRNGHDSELLRSLAEELPLEQGFTI [PLCD4] | 0.02
84 | RDASKILVDALQKFADDMYSLYGGNA [ATP6AP2] | 0.02
85 | TNISWRACDHLRCIACDFLVVSYDDY [C8orf37] | 0.02
86 | DTIYQGFAECLIRLGDSMGRGGELET [NRN1L] | 0.02
87 | FEKLRMIAKEIRHVGRMASVNMDPAL [RAPGEF2] | 0.38
88 | MVLDPSLAEHLSHFGIDMLKMQKTDK [USP5] | 0.07

Target: Bcl-xL, Q07817
Sequence (Q07817 1-209): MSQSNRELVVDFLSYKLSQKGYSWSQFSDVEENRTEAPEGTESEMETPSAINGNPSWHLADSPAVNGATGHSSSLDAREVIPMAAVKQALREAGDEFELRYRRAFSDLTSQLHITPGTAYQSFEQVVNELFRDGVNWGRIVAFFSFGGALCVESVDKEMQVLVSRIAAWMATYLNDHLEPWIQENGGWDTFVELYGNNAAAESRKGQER
Experiment: as above

Row | SPOT signal as a fraction of Bim BH3's signal on the same receptor and array | Binder
89 | 0.04 | LGDGPKLVRELFRVAEEHAPSIVFID [PSMC1]
90 | 0.19 | CLKRCRSAQVLHLYGATYSADGEDRA [NLRP12]
91 | 0.04 | RIEERKAIIGLYNYAHEMTHGASDRE [NCKAP1]
92 | 0.03 | AAVGNHVAKLLQSIGQAPESISEKEL [NAE1]
93 | 0.02 | EVKQSMSSQSLDKAAEDMPEAEQDLE [APBA1]
94 | 0.04 | EERAQNVTRLLRKQAEEVNTEWEKLN
95 | 0.02 | AEHEDDLPENLSEIADLWNSPTRTHG [CDH23]
96 | 0.39 | DISLSNSGFKLVNFGCDYHQYRDKFS [PION]
97 | 0.02 | EEIIHKLAMQDRHIGDNIDHRMVRED [PXT1]

More lines, now with the values behind:

Row | Binder | SPOT signal as a fraction of Bim BH3's signal on the same receptor and array
98 | GFANHDVVEVLRNAGQVVHLTLVRRK [INADL] | 0.33
99 | FYRRRDISNTLIMLADKHAKEIEEES [MTA3] | 0.15
100 | AIKPVSFIRDLKKIARHFRFGNQEDA [USP36] | 0.61
101 | TIHFNQRGTRLASSGDDLRVIVWDWV [DCAF8L1] | 0.06
102 | FSSDAVTSRVLLNVGQEVIAVVEENK [MOV10L1] | 0.03
103 | IGQRQTVVRTLNATGEEIIQQSSKTD | 0.03
104 | CSTNNPSQAKLRRELDESLQVAERLT [CLU] | 0.03
105 | TIRNGHDSELLRSLAEELPLEQGFTI [PLCD4] | 0.02
106 | RDASKILVDALQKFADDMYSLYGGNA [ATP6AP2] | 0.03
107 | TNISWRACDHLRCIACDFLVVSYDDY [C8orf37] | 0.08
108 | DTIYQGFAECLIRLGDSMGRGGELET [NRN1L] | 0.035
109 | FEKLRMIAKEIRHVGRMASVNMDPAL [RAPGEF2] | 0.19
110 | MVLDPSLAEHLSHFGIDMLKMQKTDK [USP5] | 0.07
